Like-named read-outs stand apart in the source and are kept apart here.
Key:
[1] = biological target: T1, human BCMA on NCI-H929, OPM2 and Raji cells (human, UniProt Q02223 1-184); assay: flow cytometry, Raji cells
T1 construct: endogenous BCMA of human cell lines; also called TNFRSF17; CD269
T1 chain: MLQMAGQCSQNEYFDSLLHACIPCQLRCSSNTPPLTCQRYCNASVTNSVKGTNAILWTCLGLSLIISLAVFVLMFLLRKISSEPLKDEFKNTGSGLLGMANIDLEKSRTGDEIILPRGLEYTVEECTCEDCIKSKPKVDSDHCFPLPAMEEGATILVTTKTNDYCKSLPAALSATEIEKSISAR

[2] = biological target: T1, human BCMA on NCI-H929, OPM2 and Raji …; assay: flow cytometry, OPM2 cells
[3] = biological target: T1, human BCMA on NCI-H929, OPM2 and Raji …; assay: flow cytometry, NCI-H929 cells
[4] = biological target: T1, human BCMA on NCI-H929, OPM2 and Raji …; assay: flow cytometry, NCI-H929 cells
[5] = biological target: T1, human BCMA on NCI-H929, OPM2 and Raji …; assay: flow cytometry on NCI-H929 cells (BCMA high), fluorescent anti-human IgG1 secondary antibody, MFI against test article concentration
[6] = biological target: T1, human BCMA on NCI-H929, OPM2 and Raji …; assay: cell-based or functional assay
[7] = biological target: T2, extracellular domain of rhesus monkey BCMA (rhesus monkey, UniProt F7FFA0 1-53); assay: Octet BLI; Fab 200 nM
T2 construct: extracellular domain; also called RhBCMA

[8] = biological target: T3, extracellular domain of human BCMA (human, UniProt Q02223 1-54); assay: Octet BLI; Fab 200 nM
T3 construct: amine-linked to Octet AR2G tips; also called hsBCMA; BCMA (human)
T3 sequence: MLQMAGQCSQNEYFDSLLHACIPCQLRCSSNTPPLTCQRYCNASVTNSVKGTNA

[9] = biological target: T2, extracellular domain of rhesus monkey …; assay: Octet BLI; Fab 200 nM; remark: listed apart in the source
[10] = biological target: T3, extracellular domain of human BCMA; assay: Octet BLI; Fab 200 nM; remark: listed apart in the source

T2 sequence (F7FFA0 entry or part of it): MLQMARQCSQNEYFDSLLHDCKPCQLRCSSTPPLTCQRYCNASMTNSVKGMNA

B1: AB212 (antibody, human IgG1, kappa, V domains shown)
VH: QVQLVQSGAEVKKPGSSVKVSCKASGGTFSNYWIHWVRQAPGQGLEWMGGTYRSHSDTNYNQKFKSRVTITADKSTSTAYMELSSLRSEDTAVYYCARGAIYHGYDVIENWGQGTLVTVSS
VL: DIQMTQSPSSLSASVGDRVTITCRASQSISSYLNWYQQKPGKAPKLLIYATSNLQIGVPSRFSGSGSGTDFTLTISSLQPEDFATYYCQQFRRLPWTFGQGTKLEIKR
notes: IgG1 kappa
[1]
  Kd: 16 nM
[2]
  Kd: 4.33 nM
[3]
  Kd: 9.68 nM

B2: AB200 (antibody, human IgG1, kappa, V domains shown)
VH: QVQLVQSGAEVKKPGSSVKVSCKASGGTFSNYWMHWVRQAPGQGLEWMGATYRGHSDTYYNQKFKGRVTITADKSTSTAYMELSSLRSEDTAVYYCARGAIYDGYDVLDNWGQGTLVTVSS
VL: DIQMTQSPSSLSASVGDRVTITCSASQDISNYLNWYQQKPGKAPKLLIYYTSNLHSGVPSRFSGSGSGTDFTLTISSLQPEDFATYYCQQYRKLPWTFGQGTKLEIKR
notes: IgG1 kappa
[1]
  Kd: 14 nM
[2]
  Kd: 10 nM
[3]
  Kd: 50.5 nM

B3: AB214-ADL1-D2-02 (antibody, human IgG1, kappa, V domains shown)
VH: QVQLVQSGAEVKKPGSSVKVSCKASGGTFSNYWIHWVRQAPGQGLEWMGATYRSQSDTYYNQKYKSRVTITADKSTSTAYMELSSLRSEDTAVYYCARGAVYHGYDVIDNWGQGTLVTVSS
VL: DIQMTQSPSSLSASVGDRVTITCRASQSISSYLNWYQQKPGKAPKLLIYATSNLQIGVPSRFSGSGSGTDFTLTISSLQPEDFATYYCQQYRRIPWTFGQGTKLEIKR
modifications: ADL1-D2 linker-payload on cysteine residues of the antibody, DAR 4.12
[4]
  Kd: 1.02 nM
[5]
  EC50 (read off the curve): ~1 nM
[6]
  GI50 (nM) OPM2.1, cell viability: 1.54 nM
  LD50 (nM) OPM2.1, cell viability: 25.1 nM

B4: AB200-ADL1-D2-02 (antibody, human IgG1, kappa, V domains shown)
VH: QVQLVQSGAEVKKPGSSVKVSCKASGGTFSNYWMHWVRQAPGQGLEWMGATYRGHSDTYYNQKFKGRVTITADKSTSTAYMELSSLRSEDTAVYYCARGAIYDGYDVLDNWGQGTLVTVSS
VL: DIQMTQSPSSLSASVGDRVTITCSASQDISNYLNWYQQKPGKAPKLLIYYTSNLHSGVPSRFSGSGSGTDFTLTISSLQPEDFATYYCQQYRKLPWTFGQGTKLEIKR
modifications: ADL1-D2 linker-payload on cysteine residues of the antibody, DAR 3.92
notes: antibody-drug conjugate; also called AB200 ADC incorporating the ADL1-D2 linker-payload
[4]
  Kd: 9.66 nM
[5]
  EC50 (read off the curve): ~9 nM

B5: AB200-ADL1-D12-05 (antibody, human IgG1, kappa, V domains shown)
VH: QVQLVQSGAEVKKPGSSVKVSCKASGGTFSNYWMHWVRQAPGQGLEWMGATYRGHSDTYYNQKFKGRVTITADKSTSTAYMELSSLRSEDTAVYYCARGAIYDGYDVLDNWGQGTLVTVSS
VL: DIQMTQSPSSLSASVGDRVTITCSASQDISNYLNWYQQKPGKAPKLLIYYTSNLHSGVPSRFSGSGSGTDFTLTISSLQPEDFATYYCQQYRKLPWTFGQGTKLEIKR
modifications: ADL1-D12 linker-payload on cysteine residues of the antibody, DAR 4.24
notes: antibody-drug conjugate
[4]
  Kd: 9.7 nM
[5]
  EC50 (read off the curve): ~9 nM

B6: AB216 (antibody, human IgG1, kappa, V domains shown)
VH: QVQLVQSGAEVKKPGSSVKVSCKASGGTFSNYWIHWVRQAPGQGLEWMGATYRIQSDTYYNQKYKSRVTITADKSTSTAYMELSSLRSEDTAVYYCARGAVYHGYDVIDNWGQGTLVTVSS
VL: DIQMTQSPSSLSASVGDRVTITCRASQSISSYINWYQQKPGKAPKLLIYATSNLQIGVPSRFSGSGSGTDFTLTISSLQPEDFATYYCQQYRRLPWSFGQGTKLEIKR
notes: IgG1 kappa
[1]
  Kd: 6.43 nM
[2]
  Kd: 2.27 nM
[3]
  Kd: 3.05 nM

B7: AB213-ADL1-D2-02 (antibody, human IgG1, kappa, V domains shown)
VH: QVQLVQSGAEVKKPGSSVKVSCKASGGTFTNYWIHWVRQAPGQGLEWMGGTYRSHSTTYYNQKFKSRVTITADKSTSTAYMELSSLRSEDTAVYYCARGAVYHGYDVIDNWGQGTLVTVSS
VL: DIQMTQSPSSLSASVGDRVTITCRASQSISSYLNWYQQKPGKAPKLLIYATSNLQIGVPSRFSGSGSGTDFTLTISSLQPEDFATYYCQQFRRLPWTFGQGTKLEIKR
modifications: ADL1-D2 linker-payload on cysteine residues of the antibody, DAR 4.18
[4]
  Kd: 0.5 nM
[5]
  EC50 (read off the curve): ~0.6 nM

B8: AB215-ADL1-D2-02 (antibody, human IgG1, kappa, V domains shown)
VH: QVQLVQSGAEVKKPGSSVKVSCKASGGTFTNYWIHWVRQAPGQGLEWMGGTYRSHSTTYYNQKFKSRVTITADKSTSTAYMELSSLRSEDTAVYYCARGAVYHGYDVIDNWGQGTLVTVSS
VL: DIQMTQSPSSLSASVGDRVTITCRASQSISSYLNWYQQKPGKAPKLLIYATSNLQIGVPSRFSGSGSGTDFTLTISSLQPEDFATYYCQQYRRIPWTFGQGTKLEIKR
modifications: ADL1-D2 linker-payload on cysteine residues of the antibody, DAR 3.96
[4]
  Kd: 1.3 nM
[5]
  EC50 (read off the curve): ~1 nM
[6]
  GI50 (nM) OPM2.1, cell viability: 4.04 nM
  LD50 (nM) OPM2.1, cell viability: 73.7 nM

B9: AB200-(2Vk31)_R2-VH-v20 (Fab, V domains shown)
VH: QVQLVQSGAEVKKPGSSVKVSCKASGGTFSNYWIHWVRQAPGQGLEWMGGTYRSHSDTNYNQKFKSRVTITADKSTSTAYMELSSLRSEDTAVYYCARGAIYHGYDVIENWGQGTLVTVSS
VL: DIQMTQSPSSLSASVGDRVTITCRASQSISSYLNWYQQKPGKAPKLLIYATSNLQIGVPSRFSGSGSGTDFTLTISSLQPEDFATYYCQQFRRLPWTFGQGTKLEIKR
notes: also called AB200_VH2-20_VK2-31
[7]
  Kd: 93.8 nM
[8]
  Kd: 42 nM
[9]
  Kd: 79.3 nM
[10]
  Kd: 38.6 nM

B10: AB218 (antibody, human IgG1, kappa, V domains shown)
VH: QVQLVQSGAEVKKPGSSVKVSCKASGGTFSNYWIHWVRQAPGQGLEWMGATYRSQSTTYYNQKFKSRVTITADKSTSTAYMELSSLRSEDTAVYYCARGAVYHGYDVIDNWGQGTLVTVSS
VL: DIQMTQSPSSLSASVGDRVTITCRASQSISSYLNWYQQKPGKAPKLLIYATSNLQIGVPSRFSGSGSGTDFTLTISSLQPEDFATYYCQQFRRLPWTFGQGTKLEIKR
notes: IgG1 kappa
[1]
  Kd: 2.15 nM
[2]
  Kd: 0.687 nM
[3]
  Kd: 0.987 nM

B11: AB217-ADL1-D2-02 (antibody, human IgG1, kappa, V domains shown)
VH: QVQLVQSGAEVKKPGSSVKVSCKASGGTFTNYWIHWVRQAPGQGLEWMGATYRSHSDTYYAQKYKSRVTITADKSTSTAYMELSSLRSEDTAVYYCARGAVYHGYDVIDNWGQGTLVTVSS
VL: DIQMTQSPSSLSASVGDRVTITCRASQSISSYINWYQQKPGKAPKLLIYATSNLQSGVPSRFSGSGSGTDFTLTISSLQPEDFATYYCQQYRRIPWTFGQGTKLEIKR
modifications: ADL1-D2 linker-payload on cysteine residues of the antibody, DAR 3.7
[4]
  Kd: 0.366 nM
[5]
  EC50 (read off the curve): ~0.4 nM
[6]
  GI50 (nM) OPM2.1, cell viability: 2.17 nM
  LD50 (nM) OPM2.1, cell viability: 16.3 nM

B12: AB200-(2Vk31)_R2-VH-v3 (Fab, V domains shown)
VH: QVQLVQSGAEVKKPGSSVKVSCKASGGTFTNYWIHWVRQAPGQGLEWMGGTYRSHSTTYYNQKFKSRVTITADKSTSTAYMELSSLRSEDTAVYYCARGAVYHGYDVIDNWGQGTLVTVSS
VL: DIQMTQSPSSLSASVGDRVTITCRASQSISSYLNWYQQKPGKAPKLLIYATSNLQIGVPSRFSGSGSGTDFTLTISSLQPEDFATYYCQQFRRLPWTFGQGTKLEIKR
notes: also called AB200_VH2-03_VK2-31
[7]
  Kd: 5.73 nM
[8]
  Kd: 2.55 nM
[9]
  Kd: 5.03 nM
[10]
  Kd: 2.7 nM

B13: AB216-ADL1-D2-02 (antibody, human IgG1, kappa, V domains shown)
VH: QVQLVQSGAEVKKPGSSVKVSCKASGGTFSNYWIHWVRQAPGQGLEWMGATYRIQSDTYYNQKYKSRVTITADKSTSTAYMELSSLRSEDTAVYYCARGAVYHGYDVIDNWGQGTLVTVSS
VL: DIQMTQSPSSLSASVGDRVTITCRASQSISSYINWYQQKPGKAPKLLIYATSNLQIGVPSRFSGSGSGTDFTLTISSLQPEDFATYYCQQYRRLPWSFGQGTKLEIKR
modifications: ADL1-D2 linker-payload on cysteine residues of the antibody, DAR 3.8
[4]
  Kd: 0.836 nM
[5]
  EC50 (read off the curve): ~0.7 nM
[6]
  GI50 (nM) OPM2.1, cell viability: 1.56 nM
  LD50 (nM) OPM2.1, cell viability: 14 nM

B14: AB218-ADL1-D2-02 (antibody, human IgG1, kappa, V domains shown)
VH: QVQLVQSGAEVKKPGSSVKVSCKASGGTFSNYWIHWVRQAPGQGLEWMGATYRSQSTTYYNQKFKSRVTITADKSTSTAYMELSSLRSEDTAVYYCARGAVYHGYDVIDNWGQGTLVTVSS
VL: DIQMTQSPSSLSASVGDRVTITCRASQSISSYLNWYQQKPGKAPKLLIYATSNLQIGVPSRFSGSGSGTDFTLTISSLQPEDFATYYCQQFRRLPWTFGQGTKLEIKR
modifications: ADL1-D2 linker-payload on cysteine residues of the antibody, DAR 3.77
[4]
  Kd: 0.333 nM
[6]
  GI50 (nM) OPM2.1, cell viability: 0.985 nM
  LD50 (nM) OPM2.1, cell viability: 19.8 nM

Reference: US20240327535A1 (EISAI R AND D MANAGEMENT, published 2024)
